How the values were obtained:
[1] = molecular target: T1, LY75 883-901 (human); experiment: peptide microarray; region identified by signal above the cut off
T1 construct: Region put together from overlapping 8mers on the array
T1 peptide: DDHFTYSRYPWHRFPVTFG
Procedure: (§1) The peptide microarray analysis was performed by LC Sciences, Houston Tex., in brief the method comprised the following steps: —Contiguous 8mer peptides of LY75 protein having […] spanning residues 216 to 1666 of the full length LY75 protein were synthesized and immobilized on a microarray chip. The chip comprised three panels such that the experiment was performed in triplicate. […] The binding assay was performed under the following conditions:—
(§2) The microarray comprising the contiguous peptides in triplicate was washed with 1 mL of binding buffer at 4° C. for 20 min. […] The array was again washed with 0.5 mL of washing buffer at 4° C. for 30 min then incubated with 25 ng/mL anti-human IgG Alexa 647 conjugate in binding buffer (pH 7.0) at 4° C. for 1 hr. The array was again washed with 0.5 mL of washing buffer at 4° C. for 30 min.

[2] = molecular target: T2, LY75 1029-1040 (human); experiment: as above
T2 construct: Region put together from overlapping 8mers on the array
T2 peptide: RELTYSNFHPLL
Procedure: as §1, §2

[3] = molecular target: T3, LY75 1077-1093 (human); experiment: as above
T3 construct: Region put together from overlapping 8mers on the array
T3 peptide: FTSCSERHFVSLCQKYS
Procedure: as §1, §2

[4] = molecular target: T4, LY75 1107-1118 (human); experiment: as above
T4 construct: Region put together from overlapping 8mers on the array
T4 peptide: TVKYLNNLYKII
Procedure: as §1, §2

[5] = molecular target: T5, LY75 761-780 (human); experiment: as above
T5 construct: Region put together from overlapping 8mers on the array; also called Region 3 (aa761-780)
T5 peptide: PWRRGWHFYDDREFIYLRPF
Procedure: as §1, §2

[6] = molecular target: T6, PWRRGWHF; experiment: peptide microarray, 8mer on the chip, 1 µg/mL LY75_A1, anti-human IgG Alexa 647
T6 construct: LY75 8mer on the microarray
T6 peptide: PWRRGWHF
Procedure: as §1, §2

[7] = molecular target: T7, RRGWHFYD; experiment: as above
T7 construct: LY75 8mer on the microarray; aa 763-770 counted from Region 3 (aa761-780)
T7 peptide: RRGWHFYD
Procedure: as §1, §2

[8] = molecular target: T8, DREFIYLR; experiment: as above
T8 construct: LY75 8mer on the microarray; aa 771-778 counted from Region 3 (aa761-780)
T8 peptide: DREFIYLR
Procedure: as §1, §2

[9] = molecular target: T9, YSRYPWHR; experiment: as above
T9 construct: LY75 8mer on the microarray
T9 peptide: YSRYPWHR
Procedure: as §1, §2

[10] = molecular target: T10, SRYPWHRF; experiment: as above
T10 construct: LY75 8mer on the microarray
T10 peptide: SRYPWHRF
Procedure: as §1, §2

[11] = molecular target: T11, PWHRFPVT; experiment: as above
T11 construct: LY75 8mer on the microarray
T11 peptide: PWHRFPVT
Procedure: as §1, §2

[12] = molecular target: T12, HRFPVTFG; experiment: as above
T12 construct: LY75 8mer on the microarray
T12 peptide: HRFPVTFG
Procedure: as §1, §2

[13] = molecular target: T13, ELTYSNFH; experiment: as above
T13 construct: LY75 8mer on the microarray
T13 peptide: ELTYSNFH
Procedure: as §1, §2

[14] = molecular target: T14, YSNFHPLL; experiment: as above
T14 construct: LY75 8mer on the microarray
T14 peptide: YSNFHPLL
Procedure: as §1, §2

[15] = molecular target: T15, FTSCSERH; experiment: as above
T15 construct: LY75 8mer on the microarray
T15 peptide: FTSCSERH
Procedure: as §1, §2

[16] = molecular target: T16, TSCSERHF; experiment: as above
T16 construct: LY75 8mer on the microarray
T16 peptide: TSCSERHF
Procedure: as §1, §2

[17] = molecular target: T17, SERHFVSL; experiment: as above
T17 construct: LY75 8mer on the microarray
T17 peptide: SERHFVSL
Procedure: as §1, §2

[18] = molecular target: T18, FVSLCQKY; experiment: as above
T18 construct: LY75 8mer on the microarray
T18 peptide: FVSLCQKY
Procedure: as §1, §2

[19] = molecular target: T19, YLNNLYKI; experiment: as above
T19 construct: LY75 8mer on the microarray
T19 peptide: YLNNLYKI
Procedure: as §1, §2

[20] = molecular target: T20, LNNLYKII; experiment: as above
T20 construct: LY75 8mer on the microarray
T20 peptide: LNNLYKII
Procedure: as §1, §2

[21] = molecular target: T21, VYFHQHSI; experiment: as above
T21 construct: LY75 8mer on the microarray
T21 peptide: VYFHQHSI
Procedure: as §1, §2

[22] = molecular target: T22, NGSRWIQY; experiment: as above
T22 construct: LY75 8mer on the microarray
T22 peptide: NGSRWIQY
Procedure: as §1, §2

[23] = molecular target: T23, GSRWIQYK; experiment: as above
T23 construct: LY75 8mer on the microarray
T23 peptide: GSRWIQYK
Procedure: as §1, §2

[24] = molecular target: T24, RWIQYKGH; experiment: as above
T24 construct: LY75 8mer on the microarray
T24 peptide: RWIQYKGH
Procedure: as §1, §2

[25] = molecular target: T25, QYKGHCYK; experiment: as above
T25 construct: LY75 8mer on the microarray
T25 peptide: QYKGHCYK
Procedure: as §1, §2

[26] = molecular target: T26, YKGHCYKS; experiment: as above
T26 construct: LY75 8mer on the microarray
T26 peptide: YKGHCYKS
Procedure: as §1, §2

[27] = molecular target: T27, YKSDQALH; experiment: as above
T27 construct: LY75 8mer on the microarray
T27 peptide: YKSDQALH
Procedure: as §1, §2

Measured: binding result

B1: LY75_A1 monoclonal antibody (antibody, human IgG1, kappa, V domains shown)
VH: EVQLVESGGGLVKPGGSLRLSCAASGFTYSNAWMSWVRQAPGKGLEWVGRIKSKTDGGTTDYAAPVQGRFTISRDDSKNTLYLQMNSLKTEDTAVYYCTIFGVVSFDYWGQGTLVTVSS
VL: DVQMTQSPSSLSASVGDRVTITCRASQSISDYLSWYQQRPGKAPNLLIYAASNLKTGVPSRFSGSGSGTDFTLTISTLQPEDFATYYCQQSYRSPWTFGQGTKVEIKR
notes: also called LY75A1 antibody; antibody LY75_A1
binds: all assays above

Reference: patent US20210113690A1 (BERLIN CHEMIE, published 2021)
